The text below walks through data of paper PMC4015496 (Genes & Development, 2014).

Data set [1] concerns the target T1, CTCFwt, full length, GST tag removed (human), P49711.
T1 chain: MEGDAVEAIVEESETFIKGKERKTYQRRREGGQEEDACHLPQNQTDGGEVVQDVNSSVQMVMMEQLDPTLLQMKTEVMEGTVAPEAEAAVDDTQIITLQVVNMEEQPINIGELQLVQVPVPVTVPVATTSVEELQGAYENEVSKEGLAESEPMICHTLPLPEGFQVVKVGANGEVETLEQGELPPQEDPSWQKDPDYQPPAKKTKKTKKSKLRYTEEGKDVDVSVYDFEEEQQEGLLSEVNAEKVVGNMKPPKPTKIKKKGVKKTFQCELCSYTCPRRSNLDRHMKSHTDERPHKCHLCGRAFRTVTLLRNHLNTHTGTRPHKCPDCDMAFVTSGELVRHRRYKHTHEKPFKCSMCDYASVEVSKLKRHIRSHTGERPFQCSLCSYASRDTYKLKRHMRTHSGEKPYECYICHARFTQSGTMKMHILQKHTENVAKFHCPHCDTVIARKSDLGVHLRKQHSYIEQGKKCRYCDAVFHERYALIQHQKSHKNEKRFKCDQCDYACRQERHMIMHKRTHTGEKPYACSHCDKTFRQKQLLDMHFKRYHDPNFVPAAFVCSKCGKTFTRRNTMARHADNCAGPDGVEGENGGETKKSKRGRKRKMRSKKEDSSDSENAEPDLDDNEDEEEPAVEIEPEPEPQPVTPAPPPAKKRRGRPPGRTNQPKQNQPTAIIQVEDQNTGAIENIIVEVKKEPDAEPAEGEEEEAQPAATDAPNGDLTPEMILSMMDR
Kind of data set: SEC. The note with it: remark: other sources report otherwise.

The data set “SEC” concerns the molecule itself. In words: SEC. In general terms: In gel filtration, larger molecules generally elute earlier.

B1: CTCFwt, full length, GST tag removed, P49711 1-727 (natural protein)
chain: MEGDAVEAIVEESETFIKGKERKTYQRRREGGQEEDACHLPQNQTDGGEVVQDVNSSVQMVMMEQLDPTLLQMKTEVMEGTVAPEAEAAVDDTQIITLQVVNMEEQPINIGELQLVQVPVPVTVPVATTSVEELQGAYENEVSKEGLAESEPMICHTLPLPEGFQVVKVGANGEVETLEQGELPPQEDPSWQKDPDYQPPAKKTKKTKKSKLRYTEEGKDVDVSVYDFEEEQQEGLLSEVNAEKVVGNMKPPKPTKIKKKGVKKTFQCELCSYTCPRRSNLDRHMKSHTDERPHKCHLCGRAFRTVTLLRNHLNTHTGTRPHKCPDCDMAFVTSGELVRHRRYKHTHEKPFKCSMCDYASVEVSKLKRHIRSHTGERPFQCSLCSYASRDTYKLKRHMRTHSGEKPYECYICHARFTQSGTMKMHILQKHTENVAKFHCPHCDTVIARKSDLGVHLRKQHSYIEQGKKCRYCDAVFHERYALIQHQKSHKNEKRFKCDQCDYACRQERHMIMHKRTHTGEKPYACSHCDKTFRQKQLLDMHFKRYHDPNFVPAAFVCSKCGKTFTRRNTMARHADNCAGPDGVEGENGGETKKSKRGRKRKMRSKKEDSSDSENAEPDLDDNEDEEEPAVEIEPEPEPQPVTPAPPPAKKRRGRPPGRTNQPKQNQPTAIIQVEDQNTGAIENIIVEVKKEPDAEPAEGEEEEAQPAATDAPNGDLTPEMILSMMDR
For B1, the stoichiometry N in data set [1] came out at 3.

B2: RBR fragment of CTCF (purified, used in gel filtration) (domain or fragment, human, UniProt P49711 520-727, looked up)
chain: EKPYACSHCDKTFRQKQLLDMHFKRYHDPNFVPAAFVCSKCGKTFTRRNTMARHADNCAGPDGVEGENGGETKKSKRGRKRKMRSKKEDSSDSENAEPDLDDNEDEEEPAVEIEPEPEPQPVTPAPPPAKKRRGRPPGRTNQPKQNQPTAIIQVEDQNTGAIENIIVEVKKEPDAEPAEGEEEEAQPAATDAPNGDLTPEMILSMMDR
As for B2, the binding result in the data set “SEC” is on record as “binds”.

One may read the stoichiometry N as a count of units in the complex or per binding partner.
